Measurements from doi:10.1101/2025.06.20.660733 (bioRxiv, 2025).

B1: HB420 (human IgG1) (antibody, V domains shown)
VH: EVQLVESGAEVKKPGSSVKVSCMASGGSFGSYGFSWVRQAPGQGLEWMGGIIPLFDTPNYAQKFQGRVTITADASTSTVYMELSSLRSEDTAVYYCARDSLPYGDQNYYYGMHVWGQGTTVTVSS
VL: QSALTQPASLSGSPGQSITISCSGSSSDIGDYNYVSWYQQHPGKAPKLIIYDVTNRPSGVSDRLSGSKSGTTASLTISGLQAEDEADYYCSSYGGNYNLVFGGGTKLTVL
B2: HB420 with only heavy chain SHMs reverted (Fab) (Fab, V domains shown)
VH: EVQLVQSGAEVKKPGSSVKVSCKASGGTFSSYAISWVRQAPGQGLEWMGGIIPIFGTANYAQKFQGRVTITADESTSTAYMELSSLRSEDTAVYYCARDSLPYGDQNYYYGMHVWGQGTTVTVSS
VL: B1 VL
B3: HB420 with only light chain SHMs reverted (Fab) (Fab, V domains shown)
VH: B1 VH
VL: QSALTQPASVSGSPGQSITISCTGTSSDVGGYNYVSWYQQHPGKAPKLMIYDVSNRPSGVSNRFSGSKSGNTASLTISGLQAEDEADYYCSSYTSNYNLVFGGGTKLTVL
B4: HB420 fragment antigen-binding (Fab) (Fab, V domains shown)
VH: B1 VH
VL: B1 VL
B5: HB420 with all SHMs reverted (Fab) (Fab, V domains shown)
VH: B2 VH
VL: B3 VL

Legend:
[1] = biological target: neuraminidase of A/Michigan/45/2015 (H1N1), recombinant head domain (Influenza A virus A/Michigan/45/2015 …, UniProt A0A0X9QTS2, strain); test: ELISA; conditions: one partner purified
[2] = biological target: neuraminidase of A/Wyoming/3/2003 (H3N2), recombinant head domain (Influenza A virus A/Wyoming/3/2003 …, UniProt Q595Z6, strain); test: cell-based or functional assay
[3] = biological target: neuraminidase of A/Moscow/10/1999 (H3N2), recombinant head domain (Influenza A virus A/Moscow/10/1999 …, strain); test: BLI; conditions: both partners purified

Binder	binding result [1]	NA inhibition of recombinant NA by enzyme-linked lectin assay (ELLA), IC50 [2] [µg/mL]	Kd [3] [nM]
B1	no binding	0.19	
B2			1.1
B3			< 1
B4			< 1
B5			1.8
